Values of other authors, collected in PMC9084902, “Low-Molecular Weight Protamine Overcomes Chondroitin Sulfate Inhibition of Neural Regeneration” (Frontiers in Cell and Developmental Biology, 2022).

Legend:
[1] = ref Rauvala, 1989; cited from earlier work
From the text: Protamine is a small 33 amino acid long protein that takes part in DNA packing during spermatogenesis ([Kasinsky et al., 2011]). Over 60% of the salmon protamine sequence is comprised of arginines so that it interacts strongly with negatively charged DNA phosphates in vivo and potentially with any other negatively charged molecules. […] Protamine sulfate is therefore widely used as a drug in cardiopulmonary bypass surgery to stop the effect of heparin ([Kaneda et al., 2005]; [Bromfield et al. ... || The CS chains even enhance the neurite outgrowth-promoting effect of HB-GAM, and we have ended up in a model according to which the CS chains of the CSPGs display a positive role by concentrating HB-GAM on the matrix and presenting it to neuron surface receptors. According to our model, two polycationic regions separated by a linker are essential to reverse the CS inhibition of neurite outgrowth ([Paveliev et al., 2016]; [Rauvala et al., 2017]). To test our hypothesis we decided to search for peptide structures that are similar to HB-GAM and display similar binding properties. Protamine displa ...

glypican-1 = settings: through heparan sulfate chains; ref Paveliev et al., 2016; cited from earlier work
From the text: In the case of HB-GAM we have identified glypican-1 as a neuron surface receptor using unbiased mass spectrometry search of neuron binding sites for the substrate-attached HB-GAM ([Paveliev et al., 2016]). […] Interaction of glypican-1 with LMWP also appears likely since LMWP binds to heparin/heparan sulfate chains. Another possible cell surface receptor of LMWP is the transmembrane receptor PTPRZ (protein tyrosine ph ...

CNS neurons = settings: aggrecan and a CSPG mixture isolated from brain; ref Paveliev et al., 2016; cited from earlier work
From the text: (§1) Our candidate protein to overcome the CS inhibition on neurite outgrowth and regeneration has been HB-GAM (heparin-binding growth-associated molecule; pleiotrophin) that was initially isolated by screening for factors from juvenile rat brain that enhance neurite outgrowth in CNS neurons ([Rauvala, 1989]; [Li et al., 1990]; [Merenmies and Rauvala, 1990]). […] Furthermore, we have recently shown t ...

[2] = system: hemisection and hemicontusion spinal cord injury models; settings: mice; ref Kulesskaya et al., 2021; cited from earlier work
From the text: as §1

B1: heparin-binding growth-associated molecule (protein, UniProt P63090 33-168, looked up)
Pleiotrophin: GKKEKPEKKVKKSDCGEWQWSVCVPTSGDCGLGTREGTRTGAECKQTMKTQRCKIPCNWKKQFGAECKYQFQAWGECDLNTALKTRTGSLKRALHNADCQKTVTISKPCGKLTKPKPQAESKKKKKEGKKQEKMLD
notes: initially isolated by screening for factors from juvenile rat brain that enhance neurite outgrowth in CNS neurons
What does the source list for B1?
binding to heparin [1]: binds avidly to heparin; binding to glypican-1 (glypican-1): binds to HB-GAM through its heparan sulfate chains; neurite outgrowth on CSPG substrates (CNS neurons): overcomes the CS inhibition and enhances neurite outgrowth on CSPG substrates; functional recovery after spinal cord injury [2]: enhances functional recovery in hemisection and hemicontusion spinal cord injury models in mice
